# Measured values taken from paper PMC12112095, “Insights into Chemoreceptor MCP2201-Sensing D-Malate” (International Journal of Molecular Sciences, 2025).
# Legend:
# [1] = target: ligand-binding domain of MCP2201 (MCP2201 LBD) (Comamonas testosteroni CNB-1); test: AUC; ligand-free; Beckman XL-I, 60,000 x g, 7 h, 4 °C
# [2] = target: ligand-binding domain of MCP2201 (MCP2201 LBD) (Comamonas testosteroni CNB-1); test: AUC; in the presence of D-malate; Beckman XL-I, 60,000 x g, 7 h, 4 °C
# [3] = target: ligand-binding domain of MCP2201 (MCP2201 LBD) (Comamonas testosteroni CNB-1); test: AUC; in the presence of L-malate; Beckman XL-I, 60,000 x g, 7 h, 4 °C
# [4] = target: ligand-binding domain of MCP2201 (MCP2201 LBD) (Comamonas testosteroni CNB-1); test: ITC; dilution: 1.1 mM protein in 10 mM D-malate, 20 mM Tris pH 7.5, 150 mM NaCl injected into the same buffer, 25 °C; oligomer dissociation model; dimer to monomers
# MCP2201 [5] = target: T1, MCP2201 (Comamonas thiooxydans, UniProt A0ABF7PFR0, T105A); test: ITC; format: binding
# T1 construct: gene CtCNB1_2201; T105A LBD
# MCP2201 [6] = target: T2, MCP2201 (Comamonas thiooxydans, UniProt A0ABF7PFR0); test: ITC; crystal structure at […] Å; format: binding
# T2 construct: gene CtCNB1_2201; LBD (residues 58–203), N-terminal His6-tag
# T2 sequence (A0ABF7PFR0 58-203): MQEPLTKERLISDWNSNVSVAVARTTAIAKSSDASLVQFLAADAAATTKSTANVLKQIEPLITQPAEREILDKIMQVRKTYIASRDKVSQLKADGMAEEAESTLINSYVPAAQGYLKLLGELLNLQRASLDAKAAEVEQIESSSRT
# [7] = target: MCP2201 LBD mutant T105A (T105A LBD) (Comamonas testosteroni CNB-1); test: AUC; ligand-free; Beckman XL-I, 60,000 x g, 7 h, 4 °C
# [8] = target: MCP2201 LBD mutant T105A (T105A LBD) (Comamonas testosteroni CNB-1); test: AUC; in the presence of citrate; Beckman XL-I, 60,000 x g, 7 h, 4 °C
# [9] = target: MCP2201 LBD mutant T105A (T105A LBD) (Comamonas testosteroni CNB-1); test: AUC; in the presence of D-malate; Beckman XL-I, 60,000 x g, 7 h, 4 °C
# MCP2201 [10] = target: T2, MCP2201; test: analytical ultracentrifugation (ligand-induced LBD dimerization); format: binding
molecule,measurement,setting,value
ligand-binding domain of MCP2201 (MCP2201 LBD) (domain or fragment),stoichiometry N,[1],2
same,stoichiometry N,[2],2
same,stoichiometry N,[3],2
same,Kd,[4],0.027 µM
O=C(O)C[C@@H](O)C(=O)O [D-malate],Kd,MCP2201 [5],5.5 ± 0.01 µM
same,Kd,MCP2201 [6],40 ± 3.3 µM
O=C(O)CC(O)(CC(=O)O)C(=O)O [citrate],Kd,MCP2201 [5],670 ± 270 µM
MCP2201 LBD mutant T105A (T105A LBD) (domain or fragment),stoichiometry N,[7],2
same,stoichiometry N,[8],2
same,stoichiometry N,[9],2
O=C(O)CC(O)C(=O)O (stereo in doubt) [L-malate],analytical ultracentrifugation (ligand-induced LBD dimerization),MCP2201 [10],"the D-malate-bound MCP2201 LBD predominately occurred as a dimer, the same as the L-malate-bound LBD (Figure 3B)"
